# In US20260258124A1 (CIMEIO THERAPEUTICS, published 2026):
# B1: Aletschhorn (antibody, V domains shown)
# VH: QVQLVQSGAEVKKPGASVKVSCKASGYTFTSYNMHWVRQAPGQGLEWMGVIYSGNGDTSYNQKFKGRVTMTTDTSTSTAYMELRSLTSDDTAVYYCARERDTRFGNWGQGTLVTVSA
# VL: EIVLTQSPSSLSASVGDRVTITCRASESVDIYGNSFMHWYQQKPGKAPKLLIYLASNLESGVPSRFSGSGSGTDFTLTISSLQPEDFATYYCQQNNEPPYTFGQGTKLEIKR
# notes: IgG; also called VH1/VL1.14
# B2: Jungfrau (antibody, V domains shown)
# VH: QVQLVQSGAEVKKPGASVKVSCKASGYTFTSYNMHWVRQAPGQGLEWMGVIYSGSGDTSYNQKFKGRVTMTTDTSTSTAYMELRSLTSDDTAVYYCARERDTRFGNWGQGTLVTVSA
# VL: EIVLTQSPSSLSASVGDRVTITCRASESVDIYGNSFMHWYQQKPGKAPKLLIYLASNLESGVPSRFSGSGSGTDFTLTISSLQPEDFATYYCQQNNEDPYTFGQGTKLEIK
# notes: IgG; also called VH1.2/VL1
# B3: Dom (antibody, V domains shown)
# VH: QVQLVQSGAEVRKPGASVKLSCKASGYTFTSYNMHWVRQAPGQGLEWMGVIYSGNGDTSYNQKFKGRVTLTRDTSTSTVYMELSSLRSEDTAVYYCARERDTRFGNWGQGTLVTVSA
# VL: EIVLTQSPSSLSASVGDRVTITCRASESVDIYGNSFMHWYQQKPGKAPKLLIYLASNLESGVPSRFSGSGSGTDFTLTISSLQPEDFATYYCQQNNEDPYTFGQGTKLEIK
# notes: IgG; also called VH3/VL1; HC3 LC1
# B4: HC2 LC3 (antibody, V domains shown)
# VH: QVQLVESGAEVKKPGASVKLSCKASGYTFTSYNMHWVRQAPGQRLEWMGVIYSGNGDTSYNQKFKGRVTITVDKSASTAYMELSSLRSEDTAVYYCARERDTRFGNWGQGTLVTVSA
# VL: DIVMTQSPSTLSASVGDRVTITCRASESVDIYGSSFMHWYQQKPGQPPKLLIYLASNLESGVPSRFSGSGSGTEFTLTISSLEADDVATYYCQQNNEDPYTFGGGTKLEIK
# notes: IgG; also called VH2/VL3
# B5: HC2 LC5 (antibody, V domains shown)
# VH: QVQLVESGAEVKKPGASVKLSCKASGYTFTSYNMHWVRQAPGQRLEWMGVIYSGNGDTSYNQKFKGRVTITVDKSASTAYMELSSLRSEDTAVYYCARERDTRFGNWGQGTLVTVSA
# VL: DIQMTQSPSSLSASVGDRVTITCRASESVDIYGNAFMHWYQQKPGKAPKLLIYLASNLESGVPSRFSGSGSGTDFTLTISSLQPEDFATYYCQQANEEPYTFGGGTKLEIK
# notes: IgG; also called VH2/VL5
# B6: HC2 LC2 (antibody, V domains shown)
# VH: QVQLVESGAEVKKPGASVKLSCKASGYTFTSYNMHWVRQAPGQRLEWMGVIYSGNGDTSYNQKFKGRVTITVDKSASTAYMELSSLRSEDTAVYYCARERDTRFGNWGQGTLVTVSA
# VL: DIVMTQSPSTLSASVGDRVTITCRASESVDIYGNSFMHWYQQKPGKAPKLLIYLASNLESGVPSRFSGSGSGTEFTLTISSLQPDDFATYYCQQNNEDPYTFGQGTKLEIK
# notes: IgG; also called VH2/VL2
# B7: HC3 LC3 (antibody, V domains shown)
# VH: QVQLVQSGAEVRKPGASVKLSCKASGYTFTSYNMHWVRQAPGQGLEWMGVIYSGNGDTSYNQKFKGRVTLTRDTSTSTVYMELSSLRSEDTAVYYCARERDTRFGNWGQGTLVTVSA
# VL: DIVMTQSPSTLSASVGDRVTITCRASESVDIYGSSFMHWYQQKPGQPPKLLIYLASNLESGVPSRFSGSGSGTEFTLTISSLEADDVATYYCQQNNEDPYTFGGGTKLEIK
# notes: IgG; also called VH3/VL3
# B8: HC3 LC5 (antibody, V domains shown)
# VH: QVQLVQSGAEVRKPGASVKLSCKASGYTFTSYNMHWVRQAPGQGLEWMGVIYSGNGDTSYNQKFKGRVTLTRDTSTSTVYMELSSLRSEDTAVYYCARERDTRFGNWGQGTLVTVSA
# VL: DIQMTQSPSSLSASVGDRVTITCRASESVDIYGNAFMHWYQQKPGKAPKLLIYLASNLESGVPSRFSGSGSGTDFTLTISSLQPEDFATYYCQQANEEPYTFGGGTKLEIK
# notes: IgG; also called VH3/VL5
# B9: HC5 LC2 (antibody, V domains shown)
# VH: EVQLVQSGAEVKKPGESLKISCKGSGYTFTSYNMHWVRQMPGKGLEWMGVIYSGNADTSYNQKFKGQVTISADKSISTAYLQWSSLKASDTAMYYCARERDTRFGNWGQGTLVTVSA
# VL: DIVMTQSPSTLSASVGDRVTITCRASESVDIYGNSFMHWYQQKPGKAPKLLIYLASNLESGVPSRFSGSGSGTEFTLTISSLQPDDFATYYCQQNNEDPYTFGQGTKLEIK
# notes: IgG; also called VH5/VL2
# B10: HC3 LC2 (antibody, V domains shown)
# VH: QVQLVQSGAEVRKPGASVKLSCKASGYTFTSYNMHWVRQAPGQGLEWMGVIYSGNGDTSYNQKFKGRVTLTRDTSTSTVYMELSSLRSEDTAVYYCARERDTRFGNWGQGTLVTVSA
# VL: DIVMTQSPSTLSASVGDRVTITCRASESVDIYGNSFMHWYQQKPGKAPKLLIYLASNLESGVPSRFSGSGSGTEFTLTISSLQPDDFATYYCQQNNEDPYTFGQGTKLEIK
# notes: IgG; also called VH3/VL2
# B11: HC1 LC5 (antibody, V domains shown)
# VH: QVQLVQSGAEVKKPGASVKVSCKASGYTFTSYNMHWVRQAPGQGLEWMGVIYSGNGDTSYNQKFKGRVTMTTDTSTSTAYMELRSLTSDDTAVYYCARERDTRFGNWGQGTLVTVSA
# VL: DIQMTQSPSSLSASVGDRVTITCRASESVDIYGNAFMHWYQQKPGKAPKLLIYLASNLESGVPSRFSGSGSGTDFTLTISSLQPEDFATYYCQQANEEPYTFGGGTKLEIK
# notes: IgG; also called VH1/VL5
# B12: Liskamm (antibody, V domains shown)
# VH: EVQLVQSGAEVKKPGESLKISCKGSGYTFTSYNMHWVRQMPGKGLEWMGVIYSGNADTSYNQKFKGQVTISADKSISTAYLQWSSLKASDTAMYYCARERDTRFGNWGQGTLVTVSA
# VL: EIVLTQSPSSLSASVGDRVTITCRASESVDIYGNSFMHWYQQKPGKAPKLLIYLASNLESGVPSRFSGSGSGTDFTLTISSLQPEDFATYYCQQNNEDPYTFGQGTKLEIK
# notes: IgG; also called VH5/VL1; HC5 LC1
# B13: HC2 LC1 (antibody, V domains shown)
# VH: QVQLVESGAEVKKPGASVKLSCKASGYTFTSYNMHWVRQAPGQRLEWMGVIYSGNGDTSYNQKFKGRVTITVDKSASTAYMELSSLRSEDTAVYYCARERDTRFGNWGQGTLVTVSA
# VL: EIVLTQSPSSLSASVGDRVTITCRASESVDIYGNSFMHWYQQKPGKAPKLLIYLASNLESGVPSRFSGSGSGTDFTLTISSLQPEDFATYYCQQNNEDPYTFGQGTKLEIK
# notes: IgG; also called VH2/VL1
# B14: HC5 LC5 (antibody, V domains shown)
# VH: EVQLVQSGAEVKKPGESLKISCKGSGYTFTSYNMHWVRQMPGKGLEWMGVIYSGNADTSYNQKFKGQVTISADKSISTAYLQWSSLKASDTAMYYCARERDTRFGNWGQGTLVTVSA
# VL: DIQMTQSPSSLSASVGDRVTITCRASESVDIYGNAFMHWYQQKPGKAPKLLIYLASNLESGVPSRFSGSGSGTDFTLTISSLQPEDFATYYCQQANEEPYTFGGGTKLEIK
# notes: IgG; also called VH5/VL5
# B15: HC5 LC3 (antibody, V domains shown)
# VH: EVQLVQSGAEVKKPGESLKISCKGSGYTFTSYNMHWVRQMPGKGLEWMGVIYSGNADTSYNQKFKGQVTISADKSISTAYLQWSSLKASDTAMYYCARERDTRFGNWGQGTLVTVSA
# VL: DIVMTQSPSTLSASVGDRVTITCRASESVDIYGSSFMHWYQQKPGQPPKLLIYLASNLESGVPSRFSGSGSGTEFTLTISSLEADDVATYYCQQNNEDPYTFGGGTKLEIK
# notes: IgG; also called VH5/VL3
# B16: Zumstein (antibody, V domains shown)
# VH: QVQLVQSGAEVKKPGASVKVSCKASGYTFTSYNMHWVRQAPGQGLEWMGVIYSGNGDTSYNQKFKGRVTMTTDTSTSTAYMELRSLTSDDTAVYYCARERDTRFGNWGQGTLVTVSA
# VL: DIVMTQSPSTLSASVGDRVTITCRASESVDIYGNSFMHWYQQKPGKAPKLLIYLASNLESGVPSRFSGSGSGTEFTLTISSLQPDDFATYYCQQNNEDPYTFGQGTKLEIK
# notes: IgG; also called VH1/VL2; HC1 LC2
# B17: Signalkuppe (antibody, V domains shown)
# VH: QVQLVQSGAEVKKPGASVKVSCKASGYTFTSYNMHWVRQAPGQGLEWMGVIYSGNGDTSYNQKFKGRVTMTTDTSTSTAYMELRSLTSDDTAVYYCARERDTRFGNWGQGTLVTVSA
# VL: DIVMTQSPSTLSASVGDRVTITCRASESVDIYGSSFMHWYQQKPGQPPKLLIYLASNLESGVPSRFSGSGSGTEFTLTISSLEADDVATYYCQQNNEDPYTFGGGTKLEIK
# notes: IgG; also called VH1/VL3; HC1 LC3
# Target: T1, human recombinant CD117 (c-Kit) from Sino Biological (Catalog No. 11996-H08H) (human, UniProt P10721 26-524)
# T1 construct: also called soluble antigen
# T1 sequence (P10721 26-524 limits assumed): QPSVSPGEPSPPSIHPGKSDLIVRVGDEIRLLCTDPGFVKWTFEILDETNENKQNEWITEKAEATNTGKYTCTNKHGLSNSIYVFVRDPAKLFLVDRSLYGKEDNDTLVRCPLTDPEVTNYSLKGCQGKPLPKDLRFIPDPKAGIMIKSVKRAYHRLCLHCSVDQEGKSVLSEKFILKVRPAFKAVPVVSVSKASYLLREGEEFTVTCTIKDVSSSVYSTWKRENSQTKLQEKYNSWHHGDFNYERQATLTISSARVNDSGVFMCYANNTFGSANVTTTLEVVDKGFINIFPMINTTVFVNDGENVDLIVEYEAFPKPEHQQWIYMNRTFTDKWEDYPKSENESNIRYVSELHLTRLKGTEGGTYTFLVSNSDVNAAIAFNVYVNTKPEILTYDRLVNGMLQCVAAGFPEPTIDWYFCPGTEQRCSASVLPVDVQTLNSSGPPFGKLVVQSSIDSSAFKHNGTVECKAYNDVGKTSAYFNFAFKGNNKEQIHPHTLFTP
# Assay: BLI Octet, set-up as in Example 2
# Description: (§1) In the main experiment kinetic assays were performed by first capturing IgG using anti-human Fc biosensors. The mAb capture biosensors were then submerged in wells containing different concentrations of antigen (association stage) followed by a dissociation step in running buffer. To allow for double reference correction, IgG-captured sensors were dipped into wells containing only buffer and blank sensors were also dipped into wells containing the antigen. This referencing provided a means of compensating for both the natural dissociation of the capture IgG and non-specific binding of the antigen to the sensor surface. Steps were performed at 25° C. at a constant shaking of 1000 rpm. New sensors were used for each sample. Dissociation rate constants (Kd) were calculated using the ForteBio Data Analysis software. All consumables used were those recommended by ForteBio.
# (§2) All samples were diluted in freshly prepared running buffer. Antibody variants were immobilized onto the surface of a series of biosensors using the capture methods described. Antigen was passed over the surface to generate a binding response. Binding data for the IgG:antigen interactions were collected at 25° C. on the biosensors. A dilution series of the antigen was used in the association step, in order to fit results globally and get the best values for ka, kd, and KD. The response data for the binding of antigen to the surface immobilized IgG were fitted to a 1:1 binding model. HC0 LC0 refers to murine SR-1.
row,Binder,Kd [nM]
1,B1,1.4
2,B2,1.3

# Target: T1, human recombinant CD117 (c-Kit) from …
# Assay: BLI Octet, IgG on anti-human Fc sensor, soluble CD117, 1:1 fit
# Description: IgG antibodies were immobilized on biosensors using suitable capture surfaces and binding of soluble antigen to immobilized antibodies was monitored by BLI (Octet). The resulting sensorgrams were analyzed using the supplied software (Fortebio). As antigen human recombinant CD117 (c-Kit) from Sino Biological was used (Catalog No. 11996-H08H, Lot #LC14SE0812). As a pre-experiment a series of experiments was performed to optimize assay parameters. The following parameters were selected:
# as §1, §2
Binder,Kd [nM],koff [s⁻¹],kon [M⁻¹ s⁻¹]
B3,1.96,0.000971,495000
B4,8.03,0.00458,571000
B5,33.8,0.0214,632000
B6,10.8,0.00483,449000
B7,3.28,0.00216,658000
B8,26.2,0.0187,715000
B9,3.61,0.0017,472000
B10,3.09,0.00178,577000
B11,8.79,0.00552,628000
B12,1.92,0.000961,500000
B13,5.16,0.00206,399000
B14,29.4,0.0184,626000
B15,3.67,0.00216,589000
B16,1.16,0.000668,576000
B17,1.09,0.000727,670000
